Test [1] concerns the target T1, CD3 on human T cells (PBMCs) (human, UniProt P07766 23-207).
T1 construct: whole, on cells; also called CD3ε; CD4+ T cells
The experiment in a line: flow cytometry on PBMCs, T cells, anti-human IgG Fc-PE. The procedure:
(§1) FACS simple binding was performed using PBMCs (to assess binding to CD3) or NCI-H1703 squamous cancer cells (to assess binding to EGFR). Cells were resuspended at 10⁶ cells/ml in FACS buffer (1×PBS+10% Versene+2% FBS), and 100 ul were added to U-bottom 96-well plates which were then centrifuged at 350 g for 3 min. […] The cells were washed in FACS buffer and stained with the following antibodies (ThermoFisher): anti-human CD4 PE-eF610 (1/100), anti-human CD8a APC (1/100) and anti-human IgG (Fc-gamma specific) PE (1/200) for 20 min 4° C. Cells were washed with FACS buffer and resuspended in FACS buffer containing Sytox green viability dye (1/200), for 20 min at 4° C. and acquired on a CytoFlex (Beckman Coulter).
(§2) For the PBMCs, the cells were also labelled with anti-CD4 or anti-CD8 antibodies.
For orientation: A flow cytometer gives signals particle by particle.

For test [2], the target named is T2, human EGFR soluble extracellular region with C-terminal poly-histidine tag (hEGFR) (human, UniProt P00533 25-638).
T2 construct: also called human EGFR His-tagged protein; soluble human EGFR
The experiment in a line: ELISA, single EGFR binding, coated huEGFR-His, anti-human IgG Fab-HRP. On the technique in general: In an ELISA, binding on a coated surface is turned into a signal by an enzyme label.

For test [3], the target named is T1, CD3 on human T cells (PBMCs). Kind of test: flow cytometry on PBMCs, CD4+ T cells, anti-human IgG Fc-PE. The procedure: as §1, §2
Test [4] shares this target. The experiment in a line: flow cytometry on PBMCs, CD8+ T cells, anti-human IgG Fc-PE. As to the method:
as §1, §2

Test [5] deals with T2, human EGFR soluble extracellular region …. The experiment in a line: dual binding ELISA, coated human EGFR, detection with huCD3-biotin and streptavidin-HRP.
Test [6] concerns the target T3, membrane-bound human EGFR receptor expressed on cells (human, UniProt P00533 25-1210).
T3 construct: whole, on cells; the construct transfected into BAF cells is not described; also called EGFR-transfected BAF cells
The experiment in a line: flow cytometry on NCI-H1703 squamous cancer cells, anti-human IgG Fc-PE. The procedure: as §1, §2

For test [7], the target named is T4, Cynomolgus EGFR-IV_556-638 (cynomolgus).
T4 chain: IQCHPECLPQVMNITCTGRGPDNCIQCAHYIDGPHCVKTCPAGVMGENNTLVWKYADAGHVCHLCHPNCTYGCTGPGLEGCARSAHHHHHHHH
Kind of test: SPR, chimeric antibody captured on Protein G, analyte 200 nM. The procedure: (§3) Measurements were performed on a Biacore 2000 instrument (GE). […] Various human and cynomolgus EGFR constructs were injected as analyte at a concentration of 200 nM at a flow rate of 30 μl/min in HBS-EP buffer. Dissociation time was 4 min. After each binding event, the surface was regenerated with 10 μl of glycine buffer pH 1.5. To verify the integrity of the EGFR domain IV constructs, a polyclonal goat anti-EGFR known to us to contain at least one anti EGFR domain IV binder (AF231, Bio-Techne AG, Zug, Switzerland) was immobilized as described above and human and cynomolgus EGFR constructs were injected as described above.
(In general: In SPR one partner is held on a chip, and binding of the other changes the refractive index at the surface.)

For test [8], the target named is T5, hEGFR-IV_556-638 (human).
T5 construct: PCR amplified from the His-tagged hEGFR construct; purified on Ni sepharose
T5 chain: T4 chain with V11A, A82P, R83T
Described as above. As to the method: as §3

Test [9] deals with T6, Cynomolgus EGFR-IV_580-638 (cynomolgus).
T6 chain: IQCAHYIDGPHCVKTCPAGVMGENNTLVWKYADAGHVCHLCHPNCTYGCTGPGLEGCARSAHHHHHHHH
The experiment in a line: SPR, antibody captured on Protein G. The procedure:
as §3

Test [10] addresses T7, hEGFR-IV_580-638 (human).
T7 construct: PCR amplified from the His-tagged hEGFR construct; purified on Ni sepharose
T7 chain: T6 chain with A58P, R59T
The experiment in a line: SPR, antibody captured on Protein G. As to the method:
as §3

Test [11] addresses T8, hEGFR-I-II-III_hErbB3-IV (human).
T8 construct: also called chimeric EGFR I-III Her3 IV molecule; EGFR-Her3 chimeric molecule (B)
Kind of test: ELISA, coated antigen 2 ug/ml. The procedure: Supernatants from both subclones were harvested and purified using a LC-kappa mouse affinity matrix (Life technologies), according to the manufacturer's instructions. These purified antibodies were tested by ELISA on 96-well plates coated with either soluble human EGFR or recombinant EGFR-Her3 chimeric constructs. These molecules were diluted at 2 ug/ml in PBS and immobilized overnight at 4° C. on a high binding 96-well plates. […] As a control, Panitumumab (Vectibix®) was used at the same concentrations. […] Following this incubation, the plates were washed and incubated with 100 ul of TMB substrate. The reaction was stopped by adding 100 μl of H₂SO₄ 2N and the absorbance was read at 450 nm on a Synergy HT2 spectrophotometer (Biotek, USA; distributor: WITTEC AG, Littau, Switzerland).

Where a chain is given by its changes, count along the chain named.

T1 sequence (P07766 23-207): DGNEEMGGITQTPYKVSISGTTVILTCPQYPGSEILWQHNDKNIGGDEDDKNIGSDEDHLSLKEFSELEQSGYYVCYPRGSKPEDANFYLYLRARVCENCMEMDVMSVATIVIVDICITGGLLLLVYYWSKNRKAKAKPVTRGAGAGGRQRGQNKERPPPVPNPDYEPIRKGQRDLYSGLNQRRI

B1: CD3×EGFR_SF3 (bispecific antibody, human IgG1, kappa, L234A L235A)
chain 1: EVQLVESGGGLVQPGGSLRLSCAASGFTFNTYAMNWVRQAPGKGLEWVARIRSKYNNYATYYADSVKSRFTISRDDSKNTLYLQMNSLRAEDTAVYYCVRHGNFGNSYVSYFAYWGQGTTVTVSSGGGGSGGGGSGGGGSEIVVTQSPATLSVSPGERATLSCRSSTGAVTESNYANWVQEKPGQAFRGLIGGANKRAPGVPARFSGSLSGDEATLTISSLQSEDFAVYYCALFYSNTWVFGQGTKLEIKGGGGTQVQLQESGPGLVKPSETLSLTCTVSGGSVSSGDYYWTWIRQSPGKGLEWIGHIYYSGNTNYNPSLKSRLTISIDTSKTQFSLKLSSVTAADTAIYYCVRDRVTGAFDIWGQGTMVTVSSASTKGPSVFPLAPSSKSTSGGTAALGCLVKDYFPEPVTVSWNSGALTSGVHTFPAVLQSSGLYSLSSVVTVPSSSLGTQTYICNVNHKPSNTKVDKKVEPKSCDKTHTCPPCPAPEAAGGPSVFLFPPKPKDTLMISRTPEVTCVVVDVSHEDPEVQFKWYVDGVEVHNAKTKPREEQYNSTFRVVSVLTVLHQDWLNGKEYKCKVSNKALPAPIEKTISKTKGQPREPAVYTLPPSREEMTKNQVKLVCLVTGFYPSDIAVEWESSGQPENNYYTTPPMLDSDGSFSLVSWLNVDKSRWQQGNIFSCSVMHEALHNRFTQKSLSLSPG
chain 2: not shown
chain 3: DKTHTCPPCPAPEAAGGPSVFLFPPKPKDTLMISRTPEVTCVVVDVSHEDPEVKFNWYVDGVEVHNAKTKPREEQYNSTYRVVSVLTVLHQDWLNGKEYKCKVSNKALPAPIEKTISKAKGQPREPEVATFPPSRDELTKNQVTLVCLVTGFYPSDIAVEWESNGQPENNYKTDPPLLESDGSFALSSRLRVDKSRWQQGNVFSCSVMHEALHNHYTQKSLSLSPG
notes: Batches AE042, P1069, P1027, TRS
For orientation: EC50 means the concentration giving half of the maximal effect. The low end stands for a more potent agent, the high end for a less potent agent. Turning to B1, the EC50 in test [1] was 5.93 µg/mL; in test [2], 0.053 µg/mL; in test [3], 6.05 µg/mL; in test [4], 3.91 µg/mL; in test [5] it was 0.171 µg/mL; in [6], 0.182 µg/mL.

B2: 10E6 chimeric antibody (antibody, human IgG1, kappa, V domains shown)
VH: DVQLQESGPGRVKPSQSLSLTCTVTGYSLTSDYAWSWIRQFPGNRLEWMVYITYSGITTYNPSLKSRISITRDTSKNQFFLQLNSVTTEDTATYYCAGGDYGLSSWFAYWGQGTLVTVSS
VL: DIVLTQSPVTLSVTPGDRVSLSCRASQSISNYLHWYQQKSHESPRLLIKYASQSISGIPSRFSGSGSGTDFTLSINSVETEDFGMYFCQQSNNWPYTFGGGTKLEIKR
notes: Mouse-human chimeric IgG1 kappa; also called chimeric 10E6 antibody
Consider B2, for which the binding result is “binds” in [7], “binds” in test [8], “no binding (tested: 200 nM)” in test [9] and “no binding (tested: 200 nM)” in test [10].

B3: 10E6 mouse hybridoma antibody (subclone 10E6F5) (antibody, V domains shown)
VH: B2 VH
VL: DIVLTQSPVTLSVTPGDRVSLSCRASQSISNYLHWYQQKSHESPRLLIKYASQSISGIPSRFSGSGSGTDFTLSINSVETEDFGMYFCQQSNNWPYTFGGGTKLEIK
notes: Tested as mouse IgG (kappa) from hybridoma: supernatant of the parental clone 10E6, purified antibody of the subclone 10E6F5; also called 10E6 hybridoma candidate
As for B3, in test [11], the binding result is “no binding (tested: 10 to 0.01 µg/ml)”.

B4: 3A6 chimeric antibody (antibody, human IgG1, kappa, V domains shown)
VH: QVQLKQSGPGLVQPSQSLSITCTVSGFSLTSYGVHWVRQSPGKGLEWLGVIWSGGTTDYNAAFISRLSISQDNSKSQVFFKMNSLQANDTAIYYCAGNQGRTVRPTWFAYWGQGTLVTVSS
VL: DILLTQSPAILSVSPGERVSFSCRASQSIGTSIHWYQQRANGSPRLLIKYASESISGIPSRFSGSGSGTDFTLSINSVESEDIAHYYCQQNSNWPLTFGAGTKLELKR
notes: Mouse-human chimeric IgG1 kappa; also called chimeric 3A6 antibody
Consider B4, for which the binding result in [7] is given as “binds”; in test [8] it was “binds”; in test [9], “no binding (tested: 200 nM)”; in test [10], “no binding (tested: 200 nM)”.

B5: 3A6 mouse hybridoma antibody (subclone 3A6A12B5) (antibody, V domains shown)
VH: B4 VH
VL: DILLTQSPAILSVSPGERVSFSCRASQSIGTSIHWYQQRANGSPRLLIKYASESISGIPSRFSGSGSGTDFTLSINSVESEDIAHYYCQQNSNWPLTFGAGTKLELK
notes: Tested as mouse IgG (kappa) from hybridoma: supernatant of the parental clone 3A6, purified antibody of the subclone 3A6A12B5; also called 3A6A12F5; 3A6 hybridoma candidate
With B5, in [11], the binding result is on record as “no binding (tested: 10 to 0.01 µg/ml)”.

The record behind these values is patent publication US20230159661A1 (ICHNOS SCIENCES, published 2023).
